According to publication PMC4322223, “Biochemical and structural characterization of a thermostable β-glucosidase from Halothermothrix orenii for galacto-oligosaccharide synthesis” (Applied Microbiology and Biotechnology, 2014):

Key:
Test in all cases: purified protein
Conditions in all cases: 65 °C, 20 mM HEPES, 150 mM NaCl, pH 7.0
[1] = substrate: O=[N+]([O-])c1ccc(O[C@@H]2O[C@H](CO)[C@H](O)[C@H](O)[C@H]2O)cc1
[2] = substrate: O=[N+]([O-])c1ccc(O[C@@H]2O[C@H](CO)[C@@H](O)[C@H](O)[C@H]2O)cc1
[3] = substrate: O=[N+]([O-])c1ccccc1O[C@@H]1O[C@H](CO)[C@H](O)[C@H](O)[C@H]1O; type: biochemical, Halothermothrix orenii
[4] = substrate: O=[N+]([O-])c1ccccc1O[C@@H]1O[C@H](CO)[C@@H](O)[C@H](O)[C@H]1O; type: biochemical, Halothermothrix orenii

B1: HoBGLA (Halothermothrix orenii H 168) (protein)
chain: MAKIIFPEDFIWGAATSSYQIEGAFNEDGKGESIWDRFSHTPGKIENGDTGDIACDHYHLYREDIELMKEIGIRSYRFSTSWPRILPEGKGRVNQKGLDFYKRLVDNLLKANIRPMITLYHWDLPQALQDKGGWTNRDTAKYFAEYARLMFEEFNGLVDLWVTHNEPWVVAFEGHAFGNHAPGTKDFKTALQVAHHLLLSHGMAVDIFREEDLPGEIGITLNLTPAYPAGDSEKDVKAASLLDDYINAWFLSPVFKGSYPEELHHIYEQNLGAFTTQPGDMDIISRDIDFLGINYYSRMVVRHKPGDNLFNAEVVKMEDRPSTEMGWEIYPQGLYDILVRVNKEYTDKPLYITENGAAFDDKLTEEGKIHDEKRINYLGDHFKQAYKALKDGVPLRGYYVWSLMDNFEWAYGYSKRFGLIYVDYENGNRRFLKDSALWYREVIEKGQVEAN
notes: full length, 451 residues, GH1; pNIC28-Bsa4 N-terminal His6-TEV tag cut off with TEV protease; expressed in E. coli BL21(DE3); 53 kDa
Km [1]: 8.34 ± 0.61 mM
kcat [1]: 156 s⁻¹
kcat/Km [1]: 18700 M⁻¹ s⁻¹
Km [2]: 0.296 ± 0.001 mM
kcat [2]: 55.2 s⁻¹
kcat/Km [2]: 187000 M⁻¹ s⁻¹
Km [3]: 6.35 ± 0.8 mM
kcat [3]: 288 s⁻¹
kcat/Km [3]: 45300 M⁻¹ s⁻¹
Km [4]: 0.386 ± 0.002 mM
kcat [4]: 94.6 s⁻¹
kcat/Km [4]: 245000 M⁻¹ s⁻¹
